Literature values, collected in patent US20070014786A1, “Methods for treating taxol-induced gut disorder” (RINAT NEUROSCIENCE CORP., priority 2003, published 2007).

T1: low affinity receptor (LNGFR), p75NTR or p75 (Homo sapiens, UniProt P08138)
T1 sequence (P08138 29-427): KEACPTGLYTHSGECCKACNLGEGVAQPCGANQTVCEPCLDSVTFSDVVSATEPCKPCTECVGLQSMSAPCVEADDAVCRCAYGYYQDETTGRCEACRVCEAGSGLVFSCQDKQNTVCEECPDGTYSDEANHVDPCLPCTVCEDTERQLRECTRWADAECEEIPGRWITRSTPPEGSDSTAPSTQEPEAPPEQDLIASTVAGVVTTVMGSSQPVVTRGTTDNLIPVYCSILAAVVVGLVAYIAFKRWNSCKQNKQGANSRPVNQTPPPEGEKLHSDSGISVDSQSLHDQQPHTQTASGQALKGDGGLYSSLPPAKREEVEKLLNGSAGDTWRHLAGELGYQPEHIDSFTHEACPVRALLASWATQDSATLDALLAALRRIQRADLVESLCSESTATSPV

B1: brain-derived neurotrophic factor (protein, UniProt P23560 19-247, looked up)
Neurotrophic factor BDNF …: APMKEANIRGQGGLAYPGVRTHGTLESVNGPKAGSRGLTSLADTFEHVIEELLDEDQKVRPNEENNKDADLYTSRVMLSSQVPLEPPLLFLLEEYKNYLDAANMSMRVRRHSDPARRGELSVCDSISEWVTAADKKTAVDMSGGTVTVLEKVPVSKGQLKQYFYETKCNPMGYTKEGCRGIDKRHWNSQCRTTQSYVRALTMDSKKRIGWRFIRIDTSCVCTLTIKRGR
notes: neurotrophin family member
B2: neurotrophin-4/5 (protein, UniProt P34130 81-210, looked up)
Neurotrophin-4: GVSETAPASRRGELAVCDAVSGWVTDRRTAVDLRGREVEVLGEVPAAGGSPLRQYFFETRCKADNAEEGGPGAGGGGCRGVDRRHWVSECKAKQSYVRALTADAQGRVGWRWIRIDTACVCTLLSRTGRA
notes: neurotrophin family member

Target: T1, low affinity receptor (LNGFR), p75NTR or p75
Details: according to current knowledge (background)

| Molecule | Kd [nM] |
| --- | --- |
| B1 | 2 |
| B2 | 2 |
